Experimental data: US20210340232A1, “MONOCLONAL ANTIBODIES AGAINST HUMAN DICKKOPF3 AND USES THEREOF” (Board of Regents, The University of Texas System, priority 2018, published 2021)
Entries after “also recorded” stand apart in the source; their conditions may differ.

Tests used:
[1] = test system: 4T1 TNBC cells; experiment: 4T1 orthotopic mouse model of TNBC; format: in vivo
Procedure: (FIG. 13A) DKK3 expression was measured by RT-PCR in TNBC fibroblasts (BCF), human pancreatic stellate cells (HPSC) from pancreatic adenocarcinoma (PDAC), BxPC (PDAC cancer cell) and water control. (FIG. 13B) DKK3 protein was measured by Western blotting in BCF from TNBC, in ER-positive breast cancer cells, and in TNBC cancer cell lines. (FIG. 13C) DKK3 protein was measured in patient-derived xenograft (PDX) tumors from TNBC relative to recombinant human DKK3 (rhDKK3) and conditioned medium from HPSC (HPSC-CM). Actin was used as loading control. […] Data is pooled from TCGA, EGA and GEO.
FIGS. 14A-C. Treatment of TNBC orthotopic model with DKK3 mAb. […] Tumor growth was measured by calipers at day 33 after starting treatment and compared to initial tumor size prior to treatment. (FIG. 14B) 4T1 primary tumors and metastases were imaged using IVIS at day 33 after starting treatment. (FIG. 14C) Luciferase signal from 4T1 metastases was measured by IVIS at day 33 after starting treatment.
Treatment of TNBC orthotopic models with DKK3 mAb was also tested. An orthotopic model using 4T1 TNBC cells labeled with firefly luciferase was treated with PBS, a control antibody, or JM6-6-1. […] The mice were also imaged to detect the primary tumors and any metastases (FIG. 14B).

[2] = target: murine DKK3 (Mus musculus, UniProt Q9QUN9); experiment: Non-denaturing Western blot of recombinant DKK3 with JM6-6-1; format: binding
Sequence of murine DKK3 (Q9QUN9 23-349): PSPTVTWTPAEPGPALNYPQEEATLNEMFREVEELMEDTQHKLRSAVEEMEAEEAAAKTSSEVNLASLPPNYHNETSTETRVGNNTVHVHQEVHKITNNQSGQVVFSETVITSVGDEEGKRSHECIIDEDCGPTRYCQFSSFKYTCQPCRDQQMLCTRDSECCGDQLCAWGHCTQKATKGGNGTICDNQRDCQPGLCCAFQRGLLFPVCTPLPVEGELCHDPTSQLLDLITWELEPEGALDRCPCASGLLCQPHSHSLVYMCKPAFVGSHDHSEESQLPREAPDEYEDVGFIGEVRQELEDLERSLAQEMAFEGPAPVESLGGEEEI
Procedure: FIGS. 12A-D. DKK3 expression in mouse PSCs and effects of treatment with DKKC mAb on survival. (FIG. 12A) Western blot analysis of recombinant human and mouse DKK3 under denaturing and non-denaturing conditions using JM6-6-1 mAb. (FIG. 12B) Expression of murine DKK3 in murine PSCs (MPSC) or 3T3 cells was determined by RT-PCR. 18S was used as loading control. (FIG. 12C) Proliferation of MPSCs treated with DKK3 mAb was measured at 7 days by MTS assay. ***p<0.001 vs. PBS. (FIG. 12D) Pdx1-Cre; Kras LSL-G12D;Trp53fl/+ model of PDAC was treated with DKK3 mAb JM6-6-1 or control mAb JM4-74 (5 mg/kg i.p. q5d). Kaplan-Meier survival curves are shown (log rank test). At 0% survival, the right line is JM6-6-1, the middle lines is PBS, and the left line is Control Ab.
Human and murine DKK3 share 83% protein sequence homology by BLAST analysis and therefore it was anticipated that it was likely that JM6-6-1 could cross-react with host DKK3. […] When KPC mice (P48-Cre; Kras^LSL-G12D;Trp53^fl/fl) were treated with JM6-6-1 (red solid line, FIG. 5H), median survival increased by 43% from 43 to 61.5 days compared to PBS or isotype control mAb (p=0.005, HR 0.24, 95% CI 0.01-0.30; FIG. 5H).

B1: JM6-6-1: monoclonal antibody against human DKK3; heavy chain variable SEQ ID NO: 19, light chain variable SEQ ID NO: 20 (antibody, V domains shown)
VH: EVKLVESGGGLVKPGGSLKLSCAASGFTFTIEYMAWIRQTPEKRLEWVASISSGGDDIYYADNVKGRFTISRDNAKNTLYLQMSSLKSEDTAIYYCSRSLSDWGQGTTLTVSSAKTTPPSDYPLA
VL: MTQTPLSLPVSLGDQASISCRSSQSILHSNGHTYLEWYLQKPGQSPKLLIYKVSNRFSGVPDRFSGSGSGTDFTLKISRVEAEDLGVYYCFQGSHVPFTFGSGTKLEIERADAAQ
luciferase signal from 4T1 metastases ([1]; 5 mg/kg ip q5 days, IVIS day 33): prevented metastases
tumor size at day 33 after starting treatment compared to controls ([1]; 5 mg/kg ip q5 days, calipers): significantly smaller
survival relative to control antibody and PBS ([1]; 4T1 mouse model of TNBC): improved survival; also recorded: increased survival
cross-reactivity with murine DKK3 [2]: recognizes murine DKK3 although more weakly than human DKK3
